Test results: patent US8198236B2, “Methods and compositions for the treatment of cancer” (Washington University, priority 2007, dated 2012)

How the values were obtained:
[1] = test system: Wnt signaling; assay: TCF/LEF-luc reporter assay in Wnt-3A-treated HEK293 cells; format: cell-based; settings: Wnt3A conditioned medium plus 500 nM, 16 hours at 37° C.
Method: HEK293 cells were plated into six-well plates. For each well, 0.1 μg of the TOP-FLASHTCF luciferase construct (Upstate Biotechnology) was cotransfected with 0.8 μg Mesd-expressing vector, 0.8 μg Mesd mutant-expressing vector, or empty vector. A β-galactosidase-expressing vector (Promega, Madison, Wis.) was included as an internal control for transfection efficiency. After 48 hours, cells were lysed and both luciferase and β-galactosidase activities were determined with enzyme assay kits (Promega). The luciferase activity was determined with a luminometer using the Dual Luciferase Assay system (Promega). Luciferase activity was normalized to the activity of the β-galactosidase.
In these experiments, transfected cells were treated without Wnt-3A or with Wnt-3A plus the indicated inhibitors (Mesd and/or Dkk1) for 16 hours at 37° C. Wnt signaling was measured by quantifying the luciferase activity using a live cell imaging system.

[2] = molecular target: T1, LRP6 (Homo sapiens, UniProt O75581); assay: 125I-Mesd cell surface binding to LRP6-transduced HT1080 cells; settings: LRP6-transduced HT1080 cells
T1 construct: expressed in transfected cells; host or cells: human HT1080 cells, retroviral vector pLNCX2
T1 sequence (O75581 20-1613): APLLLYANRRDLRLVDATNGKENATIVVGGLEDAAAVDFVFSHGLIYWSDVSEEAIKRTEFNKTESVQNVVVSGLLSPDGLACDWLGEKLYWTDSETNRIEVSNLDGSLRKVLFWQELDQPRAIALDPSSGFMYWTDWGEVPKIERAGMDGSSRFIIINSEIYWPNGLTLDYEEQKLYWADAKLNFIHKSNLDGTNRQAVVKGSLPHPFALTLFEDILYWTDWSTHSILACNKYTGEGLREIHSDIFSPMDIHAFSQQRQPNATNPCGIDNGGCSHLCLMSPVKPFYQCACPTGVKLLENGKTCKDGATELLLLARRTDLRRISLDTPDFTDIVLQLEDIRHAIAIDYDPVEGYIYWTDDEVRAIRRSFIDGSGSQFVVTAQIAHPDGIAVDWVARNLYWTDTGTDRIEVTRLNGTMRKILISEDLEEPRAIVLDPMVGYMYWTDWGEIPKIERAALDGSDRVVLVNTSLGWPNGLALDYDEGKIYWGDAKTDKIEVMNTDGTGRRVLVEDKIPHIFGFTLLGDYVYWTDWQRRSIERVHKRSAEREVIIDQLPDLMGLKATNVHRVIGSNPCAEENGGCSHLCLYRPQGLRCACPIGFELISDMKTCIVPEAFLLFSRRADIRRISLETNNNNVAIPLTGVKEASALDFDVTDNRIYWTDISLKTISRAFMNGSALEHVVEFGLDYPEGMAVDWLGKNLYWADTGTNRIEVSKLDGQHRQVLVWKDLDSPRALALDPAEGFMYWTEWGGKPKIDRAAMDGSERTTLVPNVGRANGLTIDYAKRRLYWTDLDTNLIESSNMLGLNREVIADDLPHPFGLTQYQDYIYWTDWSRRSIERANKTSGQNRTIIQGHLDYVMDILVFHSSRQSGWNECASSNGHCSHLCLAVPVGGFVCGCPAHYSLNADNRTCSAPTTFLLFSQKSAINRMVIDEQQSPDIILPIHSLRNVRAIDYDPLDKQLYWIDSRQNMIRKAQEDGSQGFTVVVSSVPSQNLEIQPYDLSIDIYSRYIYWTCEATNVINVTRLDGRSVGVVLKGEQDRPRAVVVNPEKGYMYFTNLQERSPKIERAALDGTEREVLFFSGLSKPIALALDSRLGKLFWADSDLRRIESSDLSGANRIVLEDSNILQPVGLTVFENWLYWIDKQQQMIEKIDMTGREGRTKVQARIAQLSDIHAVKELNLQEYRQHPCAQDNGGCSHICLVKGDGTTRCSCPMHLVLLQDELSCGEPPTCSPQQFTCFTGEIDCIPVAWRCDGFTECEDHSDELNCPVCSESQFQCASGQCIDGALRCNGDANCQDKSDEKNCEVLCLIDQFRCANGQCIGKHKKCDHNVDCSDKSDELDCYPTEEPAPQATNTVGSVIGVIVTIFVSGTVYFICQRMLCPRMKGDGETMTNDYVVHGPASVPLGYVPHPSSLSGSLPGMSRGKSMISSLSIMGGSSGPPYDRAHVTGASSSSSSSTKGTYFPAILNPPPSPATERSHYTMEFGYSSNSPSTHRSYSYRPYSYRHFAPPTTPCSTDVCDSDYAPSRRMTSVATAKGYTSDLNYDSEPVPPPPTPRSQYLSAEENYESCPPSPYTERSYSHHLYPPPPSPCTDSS
Method: (§1) To examine whether Mesd binds with high affinity to most members of the LDLR family at the cell surface, we performed cell surface ligand binding experiments with cells stably transduced with LRP6 cDNA. Human HT1080 cells, which express undetectable levels of LRP6, were transduced with a viral vector alone (pLNCX2) or with vector containing LRP6 cDNA (Li, Y., Oncogene 23: 9129-9135, 2004) and used for ^125I-Mesd binding (FIG. 1A). ^125I-Mesd (5 nM) reached maximal binding after 2 hours incubation at 4° C. with LRP6-expressing HT1080 cells (FIG. 1A).
(A) Time course of ^125I-Mesd (5 nM) binding to LRP6-transduced HT1080 cells and the control cells. Assay was carried out for the indicated periods at 4° C. in the absence (total) or presence of 500 nM Mesd (non-specific). (B) Saturation binding of ^125I-Mesd to LRP6-transduced HT1080 cells and the control cells. Assay was carried out at indicated concentrations for 3 hours at 4° C. in the absence (total) or presence (non-specific) of 500 nM Mesd. (C) Scatchard plots of data in B. All values are the average of triple determinations with the s.d. indicated by error bars.
(§2) Cells (2×10^5) were seeded into 12-well dishes 1 day prior to assay. Ligand-binding buffer (minimal Eagle's medium containing 0.6% BSA with a different concentration of radioligand, 0.6 ml/well) was added to cell monolayers, in the absence or the presence of 500 nM unlabeled RAP or 500 nM unlabeled Mesd, followed with incubation for 0-4 hours at 4° C. Thereafter, overlying buffer containing unbound ligand was removed, and cell monolayers were washed and lysed in low-SDS lysis buffer (62.5 mM Tris-HCl pH 6.8, 0.2% SDS, 10% v/glycerol) and counted.
To analyze the Mesd sequences that are required for Mesd to bind to mature LRP6 at the cell surface with high affinity, sequences were compared between mouse Mesd and its homologs from different species. […] We thus generated two truncated Mesd mutants lacking either the N-terminal region, MESD (12-195), or both the N-terminal and C-terminal regions, Mesd (12-155) (FIG. 3A). The ability of these mutants to bind to cell surface LRP6 was then assessed.
In this example, a truncated Mesd mutant containing the last 45 amino acids of C-terminal region was generated (FIG. 3A) and its binding affinity for LRP6 was then analyzed. […] (A) Binding analyses of ^125I-Mesd and its mutant Mesd (150-195) (5 nM) to LRP6-transduced HT1080 cells and control cells. (B) Binding analyses of ^125I-Mesd and its mutant Mesd (150-195) (5 nM) to LRP6-transduced HT1080 cells. Assays were carried out for 3 hours at 4° C. in the absence or presence of 500 nM Mesd or its mutant. Values are the means of triple determinations with the s.d. indicated by error bars.
LRP6-mediated Mesd uptake and degradation was investigated in the experiments illustrated in FIG. 7. (A) LRP6-mediated ^125I-Mesd (5 nM) degradation in LRP6-transduced HT1080 cells and control cells was carried out for 4 hours at 37° C. in the absence or presence of 500 nM Mesd. (B) ^125I-Mesd (5 nM) binding to LRP6-transduced HT1080 cells and the control cells was carried out for 4 hours at 4° C. in the absence or presence of 500 nM Mesd. Values are the means of triple determinations with the s.d. indicated by error bars.

[3] = molecular target: T1, LRP6; assay: 125I-DKK1 binding to LRP6; settings: 500 nM unlabeled, 125I-DKK1 5 nM, 3 hours at 4° C.
Method: as §2
RAP is a receptor antagonist for members of the LDLR family, and is able to inhibit the binding of most known ligands of the LDLR family members. DKK1 is an LRP6-specific ligand and antagonist. […] In these experiments, Serum-free conditioned medium was harvested from HEK293 cells transiently transfected with cDNA for human Myc-DKK1 and allowed to bind to LRP6-transduced HT1080 cells (B,C) and control cells (A) in the absence (A,B) or presence (C) of 1 μM Mesd. Cell-surface-bound Myc-tagged DKK proteins were fixed and detected by immunofluorescence staining with anti-Myc antibody. (D) DKK1 binding to cell surface LRP6 is inhibited by Mesd. Binding of 125I-DKK1 (5 nM) to LRP6-transduced HT1080 cells or the control cells was carried out for 3 hours at 4° C. in the absence (total) or presence of 500 nM RAP or 500 nM Mesd. […]

[4] = molecular target: T1, LRP6; assay: LRP6-mediated 125I-DKK1 degradation in LRP6-transduced HT1080 cells; format: cell-based; settings: 500 nM unlabeled, 4 hours at 37° C.
Method: Ligand degradation was performed using the methods as described in Li, Y., et al., J. Biol. Chem. 275: 17187-17194, 2000. Briefly, 2×10^5 cells were seeded into 12-well dishes 1 day prior to assay. Pre-warmed assay buffer (minimal Eagle's medium containing 0.6% BSA with radioligand, 0.6 ml/well) was added to cell monolayers in the absence or the presence of unlabeled 500 nM RAP or 500 nM Mesd, followed by incubation for 4 hours at 37° C. Thereafter, the medium overlying the cell monolayers was removed and proteins were precipitated by addition of BSA to 10 mg/ml and trichloroacetic acid to 20%. […] After each time point, the plates were quickly placed on ice and the assay buffer was replaced with cold stop/strip solution. ^125I-anti-HA IgG that remained on the cell surface was stripped by incubation of cell monolayers with cold stop/strip solution for a total of 20 minutes (0.75 ml for 10 minutes, twice) and counted. Cell monolayers were then solubilized with low-SDS lysis buffer and counted. […] The fraction of internalized ^125I-anti-HA IgG after each time point was calculated and plotted.
RAP is a receptor antagonist for members of the LDLR family, and is able to inhibit the binding of most known ligands of the LDLR family members. […] Cell-surface-bound Myc-tagged DKK proteins were fixed and detected by immunofluorescence staining with anti-Myc antibody. […]

[5] = molecular target: T1, LRP6; assay: Competition for 125I-Mesd binding to cell surface LRP6
Method: as §1, §2
We performed binding of 5 nM ^125I-Mesd (5 nM) to cell surface LRP6 in the presence of various concentrations of excess unlabeled RAP or 500 nM unlabeled Mesd (FIG. 8B). RAP inhibited ^125I-Mesd binding in a dose-dependent manner with ˜60% inhibition achieved with 500 nM RAP, whereas the same concentration of unlabeled Mesd inhibited >90% of ^125I-Mesd binding (FIG. 8B). […] The lower affinity of RAP to cell surface LRP6 may also contribute to its lower efficiency in inhibition of Mesd binding.
In FIG. 8A, binding of ^125I-RAP (5 nM) to LRP6-transduced HT1080 cells and the control cells was carried out for 4 hours at 4° C. in the absence (total) or presence of 500 nM RAP, or 500 nM Mesd. In FIG. 8B, binding of^125I-Mesd (5 nM) to LRP6-transduced HT1080 cells was carried out for 2 hours at 4° C. in the absence (total) or presence of various concentrations of RAP or 500 nM Mesd. (C) LRP6-mediated ^125I-Mesd (5 nM) degradation was carried out for 4 hours at 37° C. in the absence or presence of 500 nM Mesd or 500 nM RAP. Values are the means of triple determinations with the s.d. indicated by error bars.
(§3) In order to investigate the binding of Mesd polypeptide and an Mesd oligopeptide to either LRP5 or LRP6, binding assays were performed using ^125I-Mesd or ^125I-DKK1 (FIG. 10).

[6] = molecular target: T1, LRP6; assay: LRP6-mediated 125I-Mesd degradation in LRP6-transduced HT1080 cells; format: cell-based; settings: 500 nM unlabeled competitor, 4 hours at 37° C.
Method: Ligand degradation was performed using the methods as described in Li, Y., et al., J. Biol. Chem. 275: 17187-17194, 2000. Briefly, 2×10^5 cells were seeded into 12-well dishes 1 day prior to assay. Pre-warmed assay buffer (minimal Eagle's medium containing 0.6% BSA with radioligand, 0.6 ml/well) was added to cell monolayers in the absence or the presence of unlabeled 500 nM RAP or 500 nM Mesd, followed by incubation for 4 hours at 37° C. Thereafter, the medium overlying the cell monolayers was removed and proteins were precipitated by addition of BSA to 10 mg/ml and trichloroacetic acid to 20%. Degradation of radioligand was defined as the appearance of radioactive fragments in the overlying medium that were soluble in 20% trichloroacetic acid. Kinetic analysis of endocytosis LRP6-transduced HT1080 cells were plated in 12-well plates at a density of 2×10^5 cells/well and used after overnight culture. Cells were rinsed twice in ice-cold assay buffer (minimal Eagle's medium containing 0.6% BSA), and ^125I-anti-HA IgG was added at 1 nM final concentration in cold assay buffer (0.5 ml/well). The binding of ^125I-anti-HA IgG was carried out at 4° C. for 90 minutes with gentle rocking Unbound ^125I-anti-HA IgG was removed by washing cell monolayers three times with cold assay buffer. Ice-cold stop/strip solution (0.2 M acetic acid, pH 2.6, 0.1 M NaCl) was added to one set of plates without warming up and kept on ice. The remaining plates were then placed in a 37° C. water bath and 0.5 ml assay buffer prewarmed to 37° C. was quickly added to cell monolayers to initiate internalization. After each time point, the plates were quickly placed on ice and the assay buffer was replaced with cold stop/strip solution. ^125I-anti-HA IgG that remained on the cell surface was stripped by incubation of cell monolayers with cold stop/strip solution for a total of 20 minutes (0.75 ml for 10 minutes, twice) and counted. Cell monolayers were then solubilized with low-SDS lysis buffer and counted. […] The fraction of internalized ^125I-anti-HA IgG after each time point was calculated and plotted. […]

[7] = molecular target: T1, LRP6; assay: 125I-RAP binding to LRP6-transduced HT1080 cells; settings: 125I-RAP 5 nM, 4 hours at 4° C.
Method: as §2
Receptor-associated protein (RAP) binds with high affinity to LRP, megalin, VLDLR and apoER2, and with a lower affinity to the LDLR (Bu, G., Int. Rev. Cytol. 209, 79-116. 2001). To determine whether RAP and Mesd bind to identical, overlapping, or different sites on the receptors, we performed binding and competition analysis of these two chaperones with HT1080 cells stably expressing LRP6.
In FIG. 8A, binding of ^125I-RAP (5 nM) to LRP6-transduced HT1080 cells and the control cells was carried out for 4 hours at 4° C. in the absence (total) or presence of 500 nM RAP, or 500 nM Mesd. In FIG. 8B, binding of^125I-Mesd (5 nM) to LRP6-transduced HT1080 cells was carried out for 2 hours at 4° C. in the absence (total) or presence of various concentrations of RAP or 500 nM Mesd. […]

[8] = molecular target: LRP5 (Homo sapiens, UniProt O75197); assay: 125I-DKK1 binding to LRP5; settings: FIG. 10B
LRP5, sequence (O75197 32-1615): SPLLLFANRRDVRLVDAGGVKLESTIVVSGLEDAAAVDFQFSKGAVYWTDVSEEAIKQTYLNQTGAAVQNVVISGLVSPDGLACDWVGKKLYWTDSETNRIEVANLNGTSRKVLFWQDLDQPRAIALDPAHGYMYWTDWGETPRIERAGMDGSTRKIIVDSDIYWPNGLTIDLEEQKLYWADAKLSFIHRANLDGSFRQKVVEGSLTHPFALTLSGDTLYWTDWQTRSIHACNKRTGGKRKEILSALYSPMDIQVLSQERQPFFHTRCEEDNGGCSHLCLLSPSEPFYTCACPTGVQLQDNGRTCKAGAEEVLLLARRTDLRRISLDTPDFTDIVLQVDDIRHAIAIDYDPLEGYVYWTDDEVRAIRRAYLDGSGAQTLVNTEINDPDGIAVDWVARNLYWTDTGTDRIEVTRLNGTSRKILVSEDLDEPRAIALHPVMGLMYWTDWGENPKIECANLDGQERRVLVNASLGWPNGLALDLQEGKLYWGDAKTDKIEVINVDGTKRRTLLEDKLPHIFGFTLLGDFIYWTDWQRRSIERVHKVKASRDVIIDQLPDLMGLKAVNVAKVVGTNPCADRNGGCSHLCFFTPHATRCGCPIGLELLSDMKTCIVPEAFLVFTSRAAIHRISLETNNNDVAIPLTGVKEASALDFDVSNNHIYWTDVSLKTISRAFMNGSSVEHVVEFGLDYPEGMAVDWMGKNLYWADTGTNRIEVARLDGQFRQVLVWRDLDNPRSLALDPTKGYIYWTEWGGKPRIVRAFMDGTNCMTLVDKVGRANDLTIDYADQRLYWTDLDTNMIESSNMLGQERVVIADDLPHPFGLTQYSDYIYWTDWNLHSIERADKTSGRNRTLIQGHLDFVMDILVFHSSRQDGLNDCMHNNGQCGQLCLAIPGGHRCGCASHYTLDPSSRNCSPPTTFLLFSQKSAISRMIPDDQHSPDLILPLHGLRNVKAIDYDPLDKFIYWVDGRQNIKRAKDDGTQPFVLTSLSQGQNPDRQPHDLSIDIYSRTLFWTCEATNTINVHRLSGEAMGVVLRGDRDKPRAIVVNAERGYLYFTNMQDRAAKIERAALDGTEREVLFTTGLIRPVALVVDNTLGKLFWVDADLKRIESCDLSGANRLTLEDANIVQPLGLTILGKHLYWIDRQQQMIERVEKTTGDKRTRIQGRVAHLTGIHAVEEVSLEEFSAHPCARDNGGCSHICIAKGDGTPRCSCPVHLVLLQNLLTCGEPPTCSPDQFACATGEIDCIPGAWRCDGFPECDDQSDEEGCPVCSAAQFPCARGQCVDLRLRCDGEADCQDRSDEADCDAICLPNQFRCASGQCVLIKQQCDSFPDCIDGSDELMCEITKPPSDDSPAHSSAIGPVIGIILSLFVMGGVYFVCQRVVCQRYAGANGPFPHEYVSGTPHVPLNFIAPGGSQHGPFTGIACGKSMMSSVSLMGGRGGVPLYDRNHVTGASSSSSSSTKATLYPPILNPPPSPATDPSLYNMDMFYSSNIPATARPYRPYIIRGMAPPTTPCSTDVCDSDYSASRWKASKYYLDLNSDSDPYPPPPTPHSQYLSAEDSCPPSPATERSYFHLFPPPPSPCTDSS
Method: as §3

QMYPGKGGGSKEKNKTKPEKAKKKEGDPKPRASKEDNRAGSRREDL [Mesd (150-195)]
Inhibition of Wnt signaling (luciferase activity) [1]: moderately inhibit
Binding of truncated Mesd mutants to cell surface LRP6 [2]: necessary and sufficient for LRP6 binding

KGGGSKEKNKTKPEKAKKKEGDRKPRASKEDNRAGSR [Mesd WT peptide]
Inhibition of Wnt signaling (luciferase activity) [1]: moderately inhibit

RAP: Human recombinant 39 kDa receptor-associated protein, expressed in a GST expression vector [reference compound]
Effect on increased 125I-DKK1 binding of LRP6-expressing HT1080 cells [3]: not
Effect on increased 125I-DKK1 degradation of LRP6-expressing HT1080 cells [4]: not
Inhibition of 125I-Mesd binding to cell surface LRP6 ([5]; 500 nM unlabeled competitor, 125I-Mesd 5 nM, 2 hours at 4° C.): ~60%
Inhibition of 125I-Mesd degradation [6]: only partially
Increase of RAP binding in LRP6 expressing HT1080 cells compared to control cells [7]: ~20%

KGGGSKEKNKTKPEKAKKKEGDPKPRASKEDNRAGSR [SEQ ID NO: 20]
Reduction in binding of 125I-DKK1 to LRP5 [8]: small but significant reduction
Reduction of binding of 125I-Mesd to LRP6 ([5]; FIG. 10C, compared with LRP5): even greater reduction

B1: Mesd (12-155): Truncated mouse Mesd mutant lacking both the N-terminal and C-terminal regions (protein)
chain: RKKKDIRDYNDADMARLLEQWEKDDDIEEGDLPEHKRPSAPIDFSKLDPGKPESILKMTKKGKTLMMFVTVSGNPTEKETEEITSLWQGSLFNANYDVQRFIVGSDRAIFMLRDGSYAWEIKDFLVSQDRCAEVTLEGQMYPGK
modifications: left off: small tags and cut ends
notes: Truncated mouse Mesd mutant lacking both the N-terminal and C-terminal regions
Binding of truncated Mesd mutants to cell surface LRP6 [2]: completely abolished LRP6 binding

B2: MESD (12-195): Truncated mouse Mesd mutant lacking the N-terminal region (protein)
chain: RKKKDIRDYNDADMARLLEQWEKDDDIEEGDLPEHKRPSAPIDFSKLDPGKPESILKMTKKGKTLMMFVTVSGNPTEKETEEITSLWQGSLFNANYDVQRFIVGSDRAIFMLRDGSYAWEIKDFLVSQDRCAEVTLEGQMYPGKGGGSKEKNKTKPEKAKKKEGDRKPRASKEDNRAGSRREDL
modifications: left off: small tags and cut ends
notes: Truncated mouse Mesd mutant lacking the N-terminal region
Binding of truncated Mesd mutants to cell surface LRP6 [2]: no effect on LRP6 binding
